This passage reports protein stability index results from the supplement of paper PMC10724198.

± gives the standard deviation of the averaged measurements.
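Also: PSI is a weighted mean of sequencing reads over stability bins, variants kept only with over 10 reads, mCherry proximal and sfGFP distal, peptide attached via GGGS linker.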

In this data set the test system is Saccharomyces cerevisiae. In words: protein stability index of tFT-peptide fusion (C-terminal peptide) (PSI (0-1 scale)); higher = more stable (slower turnover). Conditions: genetic background: wild type; temperature: 30 C.
The sequence LEVVVVGGVGGG gave a protein stability index of 0.687 ± 0.085.
The figure for LFAHPPSPPSAP is 0.654 ± 0.016.
The figure for LFCHHCASLVDL is 0.722 ± 0.002; for LFDRFVAGVRYG it is 0.656 ± 0.021; for LFFFPRRLSPPT it is 0.722 ± 0.05.
The figure for LFFRLRSLLSRS is 0.623 ± 0.0063; for LFGIGFFSFICS it is 0.537 ± 0.074.
Turning to LFGTGVRCGVCS, the protein stability index was 0.637 ± 0.092.
To LFHHLAPRPAPP belongs 0.698 ± 0.051; to LFIGLAAVHAHY, 0.687 ± 0.11; to LFLFAPRPPPPP, 0.717 ± 0.03.
In the case of LFLSIRRFRCRL, the protein stability index worked out at 0.58 ± 0.057.
The figure for LFPALFWPTSTL is 0.743 ± 0.032.
To LFQKRAIGGAWL belongs 0.742 ± 0.039; to LFRFFPWPPPPA, 0.682 ± 0.034.
The figure for LFRPTPPSFAPP is 0.683 ± 0.048.
For the sequence LFSARRKSPTSL, the protein stability index is 0.708 ± 0.058.
To LFSGPYRYKAYM belongs 0.7273 ± 0.0061; to LFSSLLLPNALR, 0.69 ± 0.038.
The figure for LFVHTPCPFEVR is 0.673 ± 0.023; for LFWFVSLWGGFA it is 0.529 ± 0.073.
The figure for LFYYLFRYFFPP is 0.548 ± 0.0094; for LGAWAGGGASSG it is 0.704 ± 0.03.
For LGEDRVKYQKLW, the protein stability index turned out to be 0.7234 ± 0.007.
The figure for LGFGCVYCGEAW is 0.689 ± 0.033.
For LGFLSSLLCRSL, the protein stability index amounted to 0.779 ± 0.068.
To LGGASNGCSTLK belongs 0.718 ± 0.091; to LGGAVLSRFGAR, 0.738 ± 0.047.
In turn, LGGGGGVECRVG gave a protein stability index of 0.672 ± 0.058.
To LGGGGRGFAGRK belongs 0.618 ± 0.029; to LGGGSGCVEGGL, 0.713 ± 0.082; to LGGRNNRQMSSG, 0.678 ± 0.11.
The figure for LGGVGSSGDVVA is 0.648 ± 0.017; for LGGWWVWSWGRG it is 0.66 ± 0.023; for LGHVHLIGDIVC it is 0.7042 ± 0.0039.
The figure for LGKAVSDMDETH is 0.687 ± 0.026; for LGLMSSCFSMWC it is 0.657 ± 0.15; for LGLSLPCRGFTL it is 0.682 ± 0.0073.
The sequence LGMMIPQILDFV gave a protein stability index of 0.586 ± 0.014.
To LGNFENDEGSQK belongs 0.735 ± 0.026; to LGRCSTLLYCGP, 0.669 ± 0.03.
To LGRGRGGPLSGG belongs 0.7014 ± 0.003; to LGRPCGGVAGEQ, 0.637 ± 0.014; to LGRSGCRGGYVG, 0.622 ± 0.014.
To LGRSRYADVQFC belongs 0.77 ± 0.021; to LGSGGLMEPWCG, 0.644 ± 0.11.
For LGSGSTQGWAGG, the protein stability index is 0.667 ± 0.035.
To LGVGGGGRGVRG belongs 0.728 ± 0.12; to LGVGGRWVAPGA, 0.678 ± 0.094.
To LGVLGGWRRFGV belongs 0.72 ± 0.031; to LGVLRALLGEGM, 0.688 ± 0.033; to LGVWGGGRGVRG, 0.7206 ± 0.0051.
To LHAHTAPAHPKT belongs 0.689 ± 0.0087; to LHGDLLFSVYVL, 0.597 ± 0.083.
LHHPPSTHRGPD gave a protein stability index of 0.711 ± 0.004.
To LHLRPPHPPLPS belongs 0.717 ± 0.015; to LHLVRLEGEECL, 0.677 ± 0.027.
In turn, LHLYPSLLLPGL returned a protein stability index of 0.742 ± 0.074.
To LHPLHSSSPRVS belongs 0.704 ± 0.026; to LHPPHPPPSPPP, 0.626 ± 0.1.
The figure for LHPPLTLTFYLS is 0.555 ± 0.0089; for LHPPRPTPKHPA it is 0.608 ± 0.0093.
The figure for LHPSPPSPLPPP is 0.723 ± 0.028; for LHPSPQRHKTLQ it is 0.743 ± 0.017; for LHRLRLASRAAL it is 0.719 ± 0.068.
Sequence LHSPATAPHRPP displayed a protein stability index of 0.67 ± 0.022.
To LHSRLPPCRRHV belongs 0.674 ± 0.021; to LHTLPLVLSLPA, 0.534 ± 0.025.
The figure for LHTSTRPLPPTS is 0.675 ± 0.067; for LIFLPPSPLPLS it is 0.709 ± 0.085; for LIGICCDSGSHC it is 0.691 ± 0.057.
To LIIRTWEQILSP belongs 0.692 ± 0.058; to LILLTVGSPRSG, 0.686 ± 0.013.
Turning to LIPLVFAPSLVL, the protein stability index was 0.769 ± 0.093.
LIQKANGRIRRG gave a protein stability index of 0.763 ± 0.02.
To LIRRTECPRSTS belongs 0.6782 ± 0.0048; to LISLERRGVAGR, 0.657 ± 0.043; to LIVFSFLSCPVP, 0.5234 ± 0.0013.
The figure for LIVWAGACGVSR is 0.611 ± 0.014.
The figure for LKGVNPVNLHEL is 0.66 ± 0.039; for LKKSEKLSNKII it is 0.644 ± 0.041.
With LKPLRTWLSGSA, the protein stability index was determined as 0.719 ± 0.019.
To LKPPEDPCASRV belongs 0.677 ± 0.021; to LKYEGPKYHMKR, 0.691 ± 0.061.
The figure for LLAGGDVSGVGV is 0.695 ± 0.015; for LLCHLSPSSSPI it is 0.786 ± 0.068.
The figure for LLCLKIGASWSK is 0.674 ± 0.028; for LLCLVSCFGCWL it is 0.585 ± 0.052.
On to LLDGAGGGVGEG, for which the protein stability index was found to be 0.738 ± 0.033.
LLDLYTLSRLDP had a protein stability index of 0.754 ± 0.043.
To LLDRGLLSALLA belongs 0.563 ± 0.034; to LLDTSTVTCFER, 0.741 ± 0.01.
Regarding LLFPSPPLPPPL, the protein stability index came out at 0.784 ± 0.15.
The figure for LLFSTPWVWCLL is 0.623 ± 0.051.
To LLFTWGGRGCLG belongs 0.746 ± 0.032.
The figure for LLGRGVSLFRCG is 0.643 ± 0.3; for LLLASSFFTLIL it is 0.687 ± 0.043.
On to LLLDIFYWTVQS, for which the protein stability index was 0.615 ± 0.049.
As for LLLDRGISLLLL, the protein stability index was determined as 0.607 ± 0.026.
The figure for LLLLIPCYSPPP is 0.659 ± 0.071; for LLLLLPPLPFVP it is 0.66 ± 0.035.
The figure for LLLPPRLPNISP is 0.709 ± 0.044; for LLLSPSRLPPAD it is 0.676 ± 0.043.
The figure for LLLTGYGLLPST is 0.676 ± 0.079; for LLNAARIGNKGP it is 0.663 ± 0.06.
Sequence LLNIPLVFFSFP gave a protein stability index of 0.58 ± 0.1.
The figure for LLNLLLFLLPPS is 0.636 ± 0.031; for LLPNLFDSQFRE it is 0.756 ± 0.044; for LLPPPPLPPPRP it is 0.67 ± 0.032.
The figure for LLPPPPPPSTPT is 0.798 ± 0.083; for LLPPPPTPDPGP it is 0.645 ± 0.0067.
To LLPPPSRTPPPS belongs 0.688 ± 0.02.
LLPPSLLSPPPF had a protein stability index of 0.696 ± 0.094.
To LLPRSPLLPPLH belongs 0.719 ± 0.0048; to LLPSPSYPLSPS, 0.751 ± 0.037; to LLPTRPAPHLSL, 0.704 ± 0.17.
